Screen value data for five variants are collected here from article PMC9834221, “TLR3 forms a laterally aligned multimeric complex along double-stranded RNA for efficient signal transduction”.

Sequences and labels used below:
B1: mouse Toll-like receptor 3 (TLR3) extracellular domain (ECD), wild type [mouse] / itself (parent)
chain: TNQCTVRYNVADCSHLKLTHIPDDLPSNITVLNLTHNQLRRLPPTNFTRYSQLAILDAGFNSISKLEPELCQILPLLKVLNLQHNELSQISDQTFVFCTNLTELDLMSNSIHKIKSNPFKNQKNLIKLDLSHNGLSSTKLGTGVQLENLQELLLAKNKILALRSEELEFLGNSSLRKLDLSSNPLKEFSPGCFQTIGKLFALLLNNAQLNPHLTEKLCWELSNTSIQNLSLANNQLLATSESTFSGLKWTNLTQLDLSYNNLHDVGNGSFSYLPSLRYLSLEYNNIQRLSPRSFYGLSNLRYLSLKRAFTKQSVSLASHPNIDDFSFQWLKYLEYLNMDDNNIPSTKSNTFTGLVSLKYLSLSKTFTSLQTLTNETFVSLAHSPLLTLNLTKNHISKIANGTFSWLGQLRILDLGLNEIEQKLSGQEWRGLRNIFEIYLSYNKYLQLSTSSFALVPSLQRLMLRRVALKNVDISPSPFRPLRNLTILDLSNNNIANINEDLLEGLENLEILDFQHNNLARLWKRANPGGPVNFLKGLSHLHILNLESNGLDEIPVGVFKNLFELKSINLGLNNLNKLEPFIFDDQTSLRSLNLQKNLITSVEKDVFGPPFQNLNSLDMRFNPFDCTCESISWFVNWINQTHTNISELSTHYLCNTPHHYYGFPLKLFDTSSCKDSAPFEL

The variants in the experiment derive from B1. Nature of the experiment: cryo-EM 2D classification (fraction of tetrameric TLR3 particles on 90 bp dsRNA). The following applies: with itself; TLR3 0.2 mg/mL (~2.4 µM) with 3.6 molar amount of 90 bp dsRNA (0.5 mg/mL, ~8.6 µM); 25 mM MES-NaOH pH 5.3 and 0.2 M NaCl; on ice for 2–3 h; parent: 11; read off a plot.
As for chain 1 Q93E V96E K113E K115E N117E K120E N121E, the screen value was 1.6%.

chain 1 E499K D500K E503K: the screen value was determined as 2.7%.

Take chain 1 S91E Q93E K113E K115E N117E K120E N121E: the screen value turned out to be 0.75%.

In the case of chain 1 E499K D500K, the screen value worked out at 3.6%.

Consider chain 1 N498K E499K E503K, for which the screen value was 12%.
